# B1: TCRCD4-TPT#52 (TCR, V domains shown)
# Valpha: AQSVTQPDIHITVSEGASLELRCNYSYGATPYLFWYVQSPGQGLQLLLKYFSGDTLVQGIKGFEAEFKRSQSSFNLRKPSVHWSDAAEYFCAVGAQGAQKLVFGQGTRLTINP
# Vbeta: NAGVTQTPKFQVLKTGQSMTLQCAQDMNHNSMYWYRQDPGMGLRLIYYSASEGTTDKGEVPNGYNVSRLNKREFSLRLESAAPSQTSVYFCASSEAGGSSFEQYFGPGTRLTVT
# B2: TCRCD4-TPT#57 (TCR, V domains shown)
# Valpha: AQSVSQHNHHVILSEAASLELGCNYSYGGTVNLFWYVQYPGQHLQLLLKYFSGDPLVKGIKGFEAEFIKSKFSFNLRKPSVQWSDTAEYFCAVNARDNAGKSTFGDGTTLTVKP
# Vbeta: KAGVTQTPRYLIKTRGQQVTLSCSPISGHRSVSWYQQTPGQGLQFLFEYFSETQRNKGNFPGRFSGRQFSNSRSEMNVSTLELGDSALYLCASRGEPSSYEQYFGPGTRLTVT
# B3: TCRCD4-TPT#59 (TCR, V domains shown)
# Valpha: ELKVEQNPLFLSMQEGKNYTIYCNYSTTSDRLYWYRQDPGKSLESLFVLLSNGAVKQEGRLMASLDTKARLSTLHITAAVHDLSATYFCAVDNEFYFGTGTSLTVIP
# Vbeta: DTGVSQDPRHKITKRGQNVTFRCDPISEHNRLYWYRQTLGQGPEFLTYFQNEAQLEKSRLLSDRFSAERPKGSFSTLEIQRTEQGDSAMYLCASSLLGAGNIQYFGAGTRLSVL
# B4: TCRCD4-TPT#76 (TCR, V domains shown)
# Valpha: AQSVTQPDIHITVSEGASLELRCNYSYGATPYLFWYVQSPGQGLQLLLKYFSGDTLVQGIKGFEAEFKRSQSSFNLRKPSVHWSDAAEYFCAVGAFTRGGSEKLVFGKGMKLTVNP
# Vbeta: DGGITQSPKYLFRKEGQNVTLSCEQNLNHDAMYWYRQDPGQGLRLIYYSQIVNDFQKGDIAEGYSVSREKKESFPLTVTSAQKNPTAFYLCATGSYVGYEQYFGPGTRLTVT
# B5: TCRCD4-TPT#77 (TCR, V domains shown)
# Valpha: AQKITQTQPGMFVQEKEAVTLDCTYDTSDPSYGLFWYKQPSSGEMIFLIYQGSYDQQNATEGRYSLNFQKARKSANLVISASQLGDSAMYFCAMREGLAKTSYDKVIFGPGTSLSVIP
# Vbeta: GAVVSQHPSWVICKSGTSVKIECRSLDFQATTMFWYRQFPKQSLMLMATSNEGSKATYEQGVEKDKFLINHASLTLSTLTVTSAHPEDSSFYICSAPGTGHSAGELFFGEGSRLTVL
# B6: TCRCD4-TPT#78 (TCR, V domains shown)
# Valpha: AQSVTQLDSQVPVFEEAPVELRCNYSSSVSVYLFWYVQYPNQGLQLLLKYLSGSTLVKGINGFEAEFNKSQTSFHLRKPSVHISDTAEYFCAVGPNNFNKFYFGSGTKLNVKP
# Vbeta: EPEVTQTPSHQVTQMGQEVILRCVPISNHLYFYWYRQILGQKVEFLVSFYNNEISEKSEIFDDQFSVERPDGSNFTLKIRSTKLEDSAMYFCASSPVGGYNSPLHFGNGTRLTVT
# B7: TCRCD4-TPT#79 (TCR, V domains shown)
# Valpha: AQTVTQSQPEMSVQEAETVTLSCTYDTSESDYYLFWYKQPPSRQMILVIRQEAYKQQNATENRFSVNFQKAAKSFSLKISDSQLGDAAMYFCAYRSYNAGNMLTFGGGTRLMVKP
# Vbeta: KAGVTQTPRYLIKTRGQQVTLSCSPISGHRSVSWYQQTPGQGLQFLFEYFSETQRNKGNFPGRFSGRQFSNSRSEMNVSTLELGDSALYLCASSDTSGGGGEQFFGPGTRLTVL
# B8: TCRCD4-TPT#82 (TCR, V domains shown)
# Valpha: AQTVTQSQPEMSVQEAETVTLSCTYDTSESDYYLFWYKQPPSRQMILVIRQEAYKQQNATENRFSVNFQKAAKSFSLKISDSQLGDAAMYFCAYRSAGLLLTFGGGTRLMVKP
# Vbeta: DGGITQSPKYLFRKEGQNVTLSCEQNLNHDAMYWYRQDPGQGLRLIYYSQIVNDFQKGDIAEGYSVSREKKESFPLTVTSAQKNPTAFYLCASSKAPGQGNTQGWEQYFGPGTRLTVT
# B9: TCRCD8-TPT#35/2 (TCR, V domains shown)
# Valpha: AQKVTQAQTEISVVEKEDVTLDCVYETRDTTYYLFWYKQPPSGELVFLIRRNSFDEQNEISGRYSWNFQKSTSSFNFTITASQVVDSAVYFCALIEAAAGNKLTFGGGTRVLVKP
# Vbeta: NAGVTQTPKFRVLKTGQSMTLLCAQDMNHEYMYWYRQDPGMGLRLIHYSVGEGTTAKGEVPDGYNVSRLKKQNFLLGLESAAPSQTSVYFCASSDGYGYTFGSGTRLTVV
# B10: TCRCD4-TPT#9 (TCR, V domains shown)
# Valpha: QQQVKQSPQSLIVQKGGISIINCAYENTAFDYFPWYQQFPGKGPALLIAIRPDVSEKKEGRFTISFNKSAKQFSLHIMDSQPGDSATYFCAASFYTGNQFYFGTGTSLTVIP
# Vbeta: DTAVSQTPKYLVTQMGNDKSIKCEQNLGHDTMYWYKQDSKKFLKIMFSYNNKELIINETVPNRFSPKSPDKAHLNLHINSLELGDSAVYFCASSQEALGGGYGYTFGSGTRLTVV
# Key:
# Assay in all cases: cytokine release
# [1] = molecular target: T1, TPTE peptide on HLA-DRB1*15:01 (human)
# T1 peptide: DSKLYIPLEYRSISLAIAL
# [2] = molecular target: T2, TPTE peptide on HLA-DRB1*15:01 (human)
# T2 peptide: IKKIVHSIVSSFAFG
# [3] = molecular target: T3, TPTE peptide on HLA-DRB1*13:01 (human)
# T3 peptide: VLLRVFVERRQQYFS
# [4] = molecular target: T4, TPTE peptide on HLA-DQA1*01:02 / HLA-DQB1*06:02 (human)
# T4 peptide: VLDNITTDKILIDVF
# [5] = molecular target: T5, TPTE peptide on HLA-DQA1*01:03 / HLA-DQB1*06:02 (human)
# T5 peptide: VLDNITTDKILIDVF
# [6] = molecular target: T6, TPTE peptide on HLA-DQA1*01:03 / HLA-DQB1*06:03 (human)
# T6 peptide: VLDNITTDKILIDVF
# [7] = molecular target: T7, TPTE peptide on HLA-DRB1*13:01 (human)
# T7 peptide: KHFIIYSIPRYVRDLKIQI
# [8] = molecular target: T8, TPTE peptide on HLA-DRB1*13:01 (human)
# T8 peptide: RRVSENKRRYTRDGF
# [9] = molecular target: T9, TPTE peptide on HLA-DRB1*15:01 (human)
# T9 peptide: DVVYIFFDIKLLRNI
# [10] = molecular target: T10, TPTE peptide on HLA-DRB1*15:01 (human)
# T10 peptide: RRQQYFSDLFNILDT
# [11] = molecular target: T11, TPTE peptide on HLA-DRB1*15:01 (human)
# T11 peptide: LFNILDTAIIVILLL
# [12] = molecular target: T12, TPTE peptide on HLA-DRB1*13:01 (human)
# T12 peptide: PPRRILFIKHFIIYS
# [13] = molecular target: T13, TPTE peptide on HLA-B*07:02 (human)
# T13 peptide: PRWTHLLRL
# [14] = molecular target: T14, TPTE peptide on HLA-DRB1*07:01 (human)
# T14 peptide: YIPLEYRSISLAIAL
# [15] = molecular target: T15, TPTE peptide on HLA-DRB1*07:01 (human)
# T15 peptide: VFVERRQQYFSDLFN
binder,measurement,setting,value
B1,binding result,[1],recognises
B2,binding result,[2],recognises
B3,binding result,[3],recognises
B4,binding result,[4],recognises
same,binding result,[5],recognises
same,binding result,[6],recognises
B5,binding result,[7],recognises
B6,binding result,[8],recognises
B7,binding result,[9],recognises
same,binding result,[10],recognises
same,binding result,[11],recognises
B8,binding result,[12],recognises
B9,binding result,[13],recognises
B10,binding result,[14],recognises
same,binding result,[15],recognises

# Reference: patent US20190060430A1 (published 2019)
